Source: patent EP4640700A1 (Harbour Biomed (Shanghai) Co., Ltd, dated 2025)

How the values were obtained:
PSMA = PSMA (UniProt Q04609 1-750); experiment: cell-based or functional assay
BCMA = molecular target: T1, BCMA (UniProt Q02223 1-184); experiment: cell-based or functional assay
T1 sequence (looked up): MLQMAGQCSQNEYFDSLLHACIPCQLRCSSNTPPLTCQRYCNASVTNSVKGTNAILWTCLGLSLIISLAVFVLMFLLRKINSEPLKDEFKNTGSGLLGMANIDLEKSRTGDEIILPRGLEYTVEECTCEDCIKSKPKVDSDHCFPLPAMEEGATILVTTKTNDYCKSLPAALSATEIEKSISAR

human ROR1 = human ROR1 (human, UniProt Q01973 30-937); experiment: cell-based or functional assay
Chain of human ROR1 (Q01973 30-937): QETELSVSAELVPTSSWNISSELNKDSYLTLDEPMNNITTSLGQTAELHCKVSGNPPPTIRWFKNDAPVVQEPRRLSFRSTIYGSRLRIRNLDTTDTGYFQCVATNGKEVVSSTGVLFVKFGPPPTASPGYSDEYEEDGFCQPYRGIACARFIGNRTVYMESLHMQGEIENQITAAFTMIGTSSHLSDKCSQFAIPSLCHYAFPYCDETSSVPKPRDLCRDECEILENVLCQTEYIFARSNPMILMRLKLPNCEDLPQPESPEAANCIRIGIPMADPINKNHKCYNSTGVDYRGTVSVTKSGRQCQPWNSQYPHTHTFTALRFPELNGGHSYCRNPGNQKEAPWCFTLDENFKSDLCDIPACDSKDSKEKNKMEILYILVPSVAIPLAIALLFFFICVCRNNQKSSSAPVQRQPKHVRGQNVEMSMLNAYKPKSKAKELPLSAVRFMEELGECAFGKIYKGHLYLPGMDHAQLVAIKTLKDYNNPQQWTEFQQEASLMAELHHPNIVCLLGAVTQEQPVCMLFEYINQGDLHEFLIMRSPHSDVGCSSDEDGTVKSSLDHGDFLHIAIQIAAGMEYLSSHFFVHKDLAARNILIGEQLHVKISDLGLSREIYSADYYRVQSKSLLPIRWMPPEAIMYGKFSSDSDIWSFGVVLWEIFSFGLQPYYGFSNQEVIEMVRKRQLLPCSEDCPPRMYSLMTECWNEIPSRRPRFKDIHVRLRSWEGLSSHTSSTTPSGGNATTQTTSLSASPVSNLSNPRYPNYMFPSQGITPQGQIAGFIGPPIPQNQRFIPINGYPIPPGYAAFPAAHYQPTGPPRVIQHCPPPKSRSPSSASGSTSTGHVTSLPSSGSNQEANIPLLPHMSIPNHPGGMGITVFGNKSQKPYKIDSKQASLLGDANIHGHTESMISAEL

human serum albumin = molecular target: T2, human serum albumin (human, UniProt P02768 25-609); experiment: binding to human serum albumin, Fig. 19; method not described
T2 construct: Bought reagent; also called HSA
T2 sequence (P02768 25-609 limits assumed): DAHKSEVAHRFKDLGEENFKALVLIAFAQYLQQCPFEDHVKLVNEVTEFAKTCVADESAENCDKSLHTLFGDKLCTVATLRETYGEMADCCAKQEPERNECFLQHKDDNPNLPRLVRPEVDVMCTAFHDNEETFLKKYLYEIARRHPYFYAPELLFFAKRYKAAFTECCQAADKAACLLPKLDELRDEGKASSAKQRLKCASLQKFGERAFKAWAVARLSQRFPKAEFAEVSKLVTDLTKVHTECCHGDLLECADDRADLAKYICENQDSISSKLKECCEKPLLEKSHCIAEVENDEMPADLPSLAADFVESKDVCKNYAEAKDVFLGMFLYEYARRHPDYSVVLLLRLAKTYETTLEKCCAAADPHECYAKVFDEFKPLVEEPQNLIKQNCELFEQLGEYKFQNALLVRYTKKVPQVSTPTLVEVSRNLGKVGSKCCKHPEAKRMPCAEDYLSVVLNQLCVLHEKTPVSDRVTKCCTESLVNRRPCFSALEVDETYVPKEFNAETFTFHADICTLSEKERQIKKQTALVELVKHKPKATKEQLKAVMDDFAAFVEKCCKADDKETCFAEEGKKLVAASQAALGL

human B7H4 [1] = molecular target: T3, human B7H4 (human, UniProt Q7Z7D3 25-282); experiment: cell-based or functional assay
T3 sequence (looked up): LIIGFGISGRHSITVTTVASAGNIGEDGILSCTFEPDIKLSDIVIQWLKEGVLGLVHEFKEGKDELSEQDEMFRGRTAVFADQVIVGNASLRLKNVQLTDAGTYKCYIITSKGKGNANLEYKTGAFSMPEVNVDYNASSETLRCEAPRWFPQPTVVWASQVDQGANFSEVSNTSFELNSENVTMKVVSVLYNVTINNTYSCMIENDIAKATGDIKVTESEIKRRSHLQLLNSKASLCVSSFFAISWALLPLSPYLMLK

human B7H4 [2] = molecular target: T3, human B7H4; experiment: flow cytometry (FACS) on SK-BR-3 cells with high B7H4 expression

Chain of PSMA (Q04609 whole entry): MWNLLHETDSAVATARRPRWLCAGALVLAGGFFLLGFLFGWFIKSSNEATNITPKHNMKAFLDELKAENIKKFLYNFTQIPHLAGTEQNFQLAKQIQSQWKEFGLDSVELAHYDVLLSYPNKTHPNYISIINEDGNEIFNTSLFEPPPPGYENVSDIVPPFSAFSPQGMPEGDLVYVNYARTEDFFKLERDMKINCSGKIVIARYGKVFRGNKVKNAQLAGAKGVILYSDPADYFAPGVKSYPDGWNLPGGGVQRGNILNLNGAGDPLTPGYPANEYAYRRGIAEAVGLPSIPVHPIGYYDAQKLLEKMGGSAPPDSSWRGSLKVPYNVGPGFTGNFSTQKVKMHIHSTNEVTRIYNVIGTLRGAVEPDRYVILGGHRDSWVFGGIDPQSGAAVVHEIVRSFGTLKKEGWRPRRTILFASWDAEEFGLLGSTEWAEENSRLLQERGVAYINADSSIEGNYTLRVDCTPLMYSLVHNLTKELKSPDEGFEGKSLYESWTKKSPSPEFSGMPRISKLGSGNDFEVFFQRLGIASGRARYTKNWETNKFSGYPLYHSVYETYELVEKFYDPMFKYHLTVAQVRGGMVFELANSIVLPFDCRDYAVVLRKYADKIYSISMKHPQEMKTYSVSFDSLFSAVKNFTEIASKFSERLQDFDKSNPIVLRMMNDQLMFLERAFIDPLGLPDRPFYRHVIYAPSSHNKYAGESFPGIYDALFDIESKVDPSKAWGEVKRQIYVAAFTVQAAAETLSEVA

B1: PR001197 (bispecific antibody)
chain 1: QVQLVESGGGLVKPGESLRLSCAASGFTFSDYYMYWVRQAPGKGLEWVAIISDGGYYTYYSDIIKGRFTISRDNAKNSLYLQMNSLKAEDTAVYYCARGFPLLRHGAMDYWGQGTLVTVSSASTKGPSVFPLAPSSKSTSGGTAALGCLVKDYFPEPVTVSWNSGALTSGVHTFPAVLQSSGLYSLSSVVTVPSSSLGTQTYICNVNHKPSNTKVDKKVEPKSC
chain 2: DIQMTQSPSSLSASVGDRVTITCKASQNVDTNVAWYQQKPGQAPKSLIYSASYRYSDVPSRFSGSASGTDFTLTISSVQSEDFATYYCQQYDSYPYTFGGGTKLEIKRTVAAPSVFIFPPSDEQLKSGTASVVCLLNNFYPREAKVQWKVDNALQSGNSQESVTEQDSKDSTYSLSSTLTLSKADYEKHKVYACEVTHQGLSSPVTKSFNRGECEVQLVESGGGLVQPGGSLKLSCAASGFTFNTYAMNWVRQASGKGLEWVGRIRSKYNNYATYYADSVKDRFTISRDDSKSTLYLQMNSLKTEDTAVYYCVRHGNFGNSYVSWFAYWGQGTLVTVSSASTKGPSVFPLAPSSKSTSGGTAALGCLVKDYFPEPVTVSWNSGALTSGVHTFPAVLQSSGLYSLSSVVTVPSSSLGTQTYICNVNHKPSNTKVDKKVEPKSC
light: QAVVTQEPSLTVSPGGTVTLTCRSSTGAVTTSNYANWVQQKPGQAPRGLIGGTNKRAPWTPARFSGSLLGDKAALTLLGAQPEDEAEYFCALWYSNLWVFGGGTKLTVLGQPKAAPSVTLFPPSSEELQANKATLVCLISDFYPGAVTVAWKADSSPVKAGVETTTPSKQSNNKYAASSYLSLTPEQWKSHRSYSCQVTHEGSTVEKTVAPTECS
- Cell killing EC50 (PSMA): 0.143 nM
- Maximum killing rate (%) (PSMA): 52.4%

B2: PR001198 (bispecific antibody)
chain 1: QVQLVQSGAEVKKPGSSVKVSCKASGGTFSNYWMHWVRQAPGQGLEWMGATYRGHSDTYYNQKFKGRVTITADKSTSTAYMELSSLRSEDTAVYYCARGAIYDGYDVLDNWGQGTLVTVSSASTKGPSVFPLAPSSKSTSGGTAALGCLVKDYFPEPVTVSWNSGALTSGVHTFPAVLQSSGLYSLSSVVTVPSSSLGTQTYICNVNHKPSNTKVDKKVEPKSC
chain 2: not shown
light: QAVVTQEPSLTVSPGGTVTLTCRSSTGAVTTSNYANWVQQKPGQAPRGLIGGTNKRAPWTPARFSGSLLGDKAALTLLGAQPEDEAEYFCALWYSNLWVFGGGTKLTVLGQPKAAPSVTLFPPSSEELQANKATLVCLISDFYPGAVTVAWKADSSPVKAGVETTTPSKQSNNKYAASSYLSLTPEQWKSHRSYSCQVTHEGSTVEKTVAPTECS
- Cell killing EC50 (BCMA): 0.0178 nM
- Maximum killing rate (%) (BCMA): 61.3%

B3: PR001200 (bispecific antibody)
chain 1: EVQLVESGGGLVQPGRSLRLSCTASGSDINDYPITWVRQAPGQGLEWIGFINSGGSTWYASWVKGRFTISRDDSKSIAYLQMNSLKTEDTAVYYCARGYSTYYRDFNIWGQGTLVTVSSASTKGPSVFPLAPSSKSTSGGTAALGCLVKDYFPEPVTVSWNSGALTSGVHTFPAVLQSSGLYSLSSVVTVPSSSLGTQTYICNVNHKPSNTKVDKKVEPKSC
chain 2: DIQMTQSPSSLSASVGDRVTINCQASQSIDSNLAWFQQKPGQPPKLLIYRASNLASGVPDRFSGSGSGTDFTLTISSLEAEDVATYYCLGGVGAVSYRTSFGGGTKVEIKRTVAAPSVFIFPPSDEQLKSGTASVVCLLNNFYPREAKVQWKVDNALQSGNSQESVTEQDSKDSTYSLSSTLTLSKADYEKHKVYACEVTHQGLSSPVTKSFNRGECEVQLVESGGGLVQPGGSLKLSCAASGFTFNTYAMNWVRQASGKGLEWVGRIRSKYNNYATYYADSVKDRFTISRDDSKSTLYLQMNSLKTEDTAVYYCVRHGNFGNSYVSWFAYWGQGTLVTVSSASTKGPSVFPLAPSSKSTSGGTAALGCLVKDYFPEPVTVSWNSGALTSGVHTFPAVLQSSGLYSLSSVVTVPSSSLGTQTYICNVNHKPSNTKVDKKVEPKSC
light: QAVVTQEPSLTVSPGGTVTLTCRSSTGAVTTSNYANWVQQKPGQAPRGLIGGTNKRAPWTPARFSGSLLGDKAALTLLGAQPEDEAEYFCALWYSNLWVFGGGTKLTVLGQPKAAPSVTLFPPSSEELQANKATLVCLISDFYPGAVTVAWKADSSPVKAGVETTTPSKQSNNKYAASSYLSLTPEQWKSHRSYSCQVTHEGSTVEKTVAPTECS
- Cell killing EC50 (human ROR1): 1.16 nM
- Maximum killing rate (%) (human ROR1): 54.8%

B4: PR000929 (VHH)
VHH: EVQLLESGGGLVQPGGSLRLSCAASGFTFRSFGMSWVRQAPGKGPEWVSSISGSGSDTLYADSVKGRFTISRDNSKNTLYLQMNSLRPEDTAVYYCTIGGSLSRSSQGTLVTVSS
notes: Humanized single-domain antibody, no Fc; also called anti-HSA Alb23-his; single-domain antibody Alb23
- binding result (human serum albumin): binds

B5: PR000317 (bispecific antibody)
chain 1: EVQLVQSGAEVKKPGASVKVSCKASGYTFTSYWIGWVRQAPGQGLEWIGDIYPGGGYTNYNEKFKGRVTITRDTSTSTAYLELSSLRSEDTAVYYCARLAGSSYRGAMDSWGQGTLVTVSSASTKGPSVFPLAPSSKSTSGGTAALGCLVKDYFPEPVTVSWNSGALTSGVHTFPAVLQSSGLYSLSSVVTVPSSSLGTQTYICNVNHKPSNTKVDKKVEPKSC
chain 2: DIQMTQSPSSLSASVGDRVTITCKASQGFNKYVAWYQQKPGKAPKLLIYYTSTLQPGVPSRFSGSGSGRDYTLTISSLQPEDFATYYCLQYGDLLYAFGQGTKVEIKRTVAAPSVFIFPPSDEQLKSGTASVVCLLNNFYPREAKVQWKVDNALQSGNSQESVTEQDSKDSTYSLSSTLTLSKADYEKHKVYACEVTHQGLSSPVTKSFNRGECEVQLVESGGGLVQPKGSLKLSCAASGFTFNTYAMNWVRQAPGKGLEWVARIRSKYNNYATYYADSVKDRFTISRDDSQSILYLQMNNLKTEDTAMYYCVRHGNFGNSYVSWFAYWGQGTLVTVSAASTKGPSVFPLAPSSKSTSGGTAALGCLVKDYFPEPVTVSWNSGALTSGVHTFPAVLQSSGLYSLSSVVTVPSSSLGTQTYICNVNHKPSNTKVDKKVEPKSC
light: QAVVTQESALTTSPGETVTLTCRSSTGAVTTSNYANWVQEKPDHLFTGLIGGTNKRAPGVPARFSGSLIGDKAALTITGAQTEDEAIYFCALWYSNLWVFGGGTKLTVLGQPKAAPSVTLFPPSSEELQANKATLVCLISDFYPGAVTVAWKADSSPVKAGVETTTPSKQSNNKYAASSYLSLTPEQWKSHRSYSCQVTHEGSTVEKTVAPTECS
notes: Three-chain Fab-Fab without Fc; N-terminal Fab-A from PR000157 (anti-B7H4), C-terminal Fab-B from PR000260 (anti-CD3 SP34); also called Anti-B7H4xCD3 1D11-SP34 Fab-Fab; B7H4xCD3 "κ/λ" Fab-Fab antibody
- Cell killing EC50 (human B7H4 [1]): 0.0018 nM
- Maximum killing rate (%) (human B7H4 [1]): 33.9%
- EC50 (human B7H4 [2]): 22 nM

B6: PR001325 (bispecific antibody)
chain 1: EVQLVQSGAEVKKPGASVKVSCKASGYTFTSYWIGWVRQAPGQGLEWIGDIYPGGGYTNYNEKFKGRVTITRDTSTSTAYLELSSLRSEDTAVYYCARLAGSSYRGAMDSWGQGTLVTVSSASTKGPSVFPLAPSSKSTSGGTAALGCLVKDYFPEPVTVSWNSGALTSGVHTFPAVLQSSGLYSLSSVVTVPSSSLGTQTYICNVNHKPSNTKVDKKVEPKSC
chain 2: DIQMTQSPSSLSASVGDRVTITCKASQGFNKYVAWYQQKPGKAPKLLIYYTSTLQPGVPSRFSGSGSGRDYTLTISSLQPEDFATYYCLQYGDLLYAFGQGTKVEIKRTVAAPSVFIFPPSDEQLKSGTASVVCLLNNFYPREAKVQWKVDNALQSGNSQESVTEQDSKDSTYSLSSTLTLSKADYEKHKVYACEVTHQGLSSPVTKSFNRGECEVQLVESGGGLVQPGGSLKLSCAASGFTFNTYAMNWVRQASGKGLEWVGRIRSKYNNYATYYADSVKDRFTISRDDSKSTLYLQMNSLKTEDTAVYYCVRHGNFGNSYVSWFAYWGQGTLVTVSSASTKGPSVFPLAPSSKSTSGGTAALGCLVKDYFPEPVTVSWNSGALTSGVHTFPAVLQSSGLYSLSSVVTVPSSSLGTQTYICNVNHKPSNTKVDKKVEPKSCGGGGSGGGGSEVQLLESGGGLVQPGGSLRLSCAASGFTFRSFGMSWVRQAPGKGPEWVSSISGSGSDTLYADSVKGRFTISRDNSKNTLYLQMNSLRPEDTAVYYCTIGGSLSRSSQGTLVTVSS
light: QAVVTQEPSLTVSPGGTVTLTCRSSTGAVTTSNYANWVQQKPGQAPRGLIGGTNKRAPWTPARFSGSLLGDKAALTLLGAQPEDEAEYFCALWYSNLWVFGGGTKLTVLGQPKAAPSVTLFPPSSEELQANKATLVCLISDFYPGAVTVAWKADSSPVKAGVETTTPSKQSNNKYAASSYLSLTPEQWKSHRSYSCQVTHEGSTVEKTVAPTECS
notes: no Fc; also called anti-B7H4xCD3 1D11C2-hzSP34_PR512 Fab-Fab-(G4S)2-Alb23; B7H4xCD3xALB trispecific antibody
- binding result (human serum albumin): binds
